Results from article PMC9482650, “Quantitative fragmentomics allow affinity mapping of interactomes” (Nature Communications, 2022).

Columns and labels:
Assay in all cases: holdup assay
Parameters in all cases: key: below the threshold = too weak to quantify, mostly under pKd 3.1 to 4
Conditions in all cases: plain residues with an end cap or a label only (N-terminal biotin on a linker: ado-ado)
LDB3, O75112 = target: LDB3, O75112
FRMPD2_2, Q68DX3 = target: FRMPD2_2, Q68DX3
GRIP2_5, Q9C0E4 = target: GRIP2_5, Q9C0E4
Chain of GRIP2_5, Q9C0E4 (Q9C0E4 544-642): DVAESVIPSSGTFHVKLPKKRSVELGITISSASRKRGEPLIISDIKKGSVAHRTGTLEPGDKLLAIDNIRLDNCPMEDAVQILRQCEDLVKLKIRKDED

HTRA4, P83105 = target: T1, HTRA4, P83105
T1 sequence (P83105 378-476, limits assumed, looked up): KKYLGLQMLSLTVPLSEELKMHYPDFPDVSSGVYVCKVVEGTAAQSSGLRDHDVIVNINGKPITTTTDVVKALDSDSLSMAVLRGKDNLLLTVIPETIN

MAGI2_2, Q86UL8 = target: MAGI2_2, Q86UL8
Chain of MAGI2_2, Q86UL8 (Q86UL8 410-522): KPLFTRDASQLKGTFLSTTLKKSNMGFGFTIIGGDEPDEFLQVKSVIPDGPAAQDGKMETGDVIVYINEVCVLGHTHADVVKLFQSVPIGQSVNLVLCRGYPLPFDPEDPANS

TIAM2, Q8IVF5 = target: T2, TIAM2, Q8IVF5
T2 sequence (Q8IVF5 885-986, limits assumed, looked up): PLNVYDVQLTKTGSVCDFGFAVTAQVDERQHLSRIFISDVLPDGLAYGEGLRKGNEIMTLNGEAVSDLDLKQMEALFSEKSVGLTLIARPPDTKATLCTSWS

MAST1, Q9Y2H9 = target: MAST1, Q9Y2H9
Chain of MAST1, Q9Y2H9 (Q9Y2H9 962-1065): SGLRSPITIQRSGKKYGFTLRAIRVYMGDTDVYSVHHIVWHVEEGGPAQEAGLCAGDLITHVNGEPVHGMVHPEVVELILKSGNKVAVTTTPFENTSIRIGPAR

RAPGEF6, Q8TEU7 = target: T3, RAPGEF6, Q8TEU7
T3 sequence (Q8TEU7 525-625, limits assumed, looked up): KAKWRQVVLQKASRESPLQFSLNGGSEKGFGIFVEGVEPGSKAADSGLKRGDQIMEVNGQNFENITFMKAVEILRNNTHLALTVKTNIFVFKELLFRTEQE

SNTB1, Q13884 = target: T4, SNTB1, Q13884
T4 sequence (Q13884 107-205, limits assumed, looked up): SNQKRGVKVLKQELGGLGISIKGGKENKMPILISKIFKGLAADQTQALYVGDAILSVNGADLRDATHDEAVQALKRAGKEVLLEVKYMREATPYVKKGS

DLG1_1, Q12959 = target: DLG1_1, Q12959
LRRC7, Q96NW7 = target: T5, LRRC7, Q96NW7
T5 sequence (Q96NW7 1440-1537, limits assumed, looked up): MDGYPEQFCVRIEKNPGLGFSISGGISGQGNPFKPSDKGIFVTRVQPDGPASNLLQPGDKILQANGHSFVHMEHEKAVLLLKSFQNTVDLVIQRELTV

FRMPD2_1, Q68DX3 = target: FRMPD2_1, Q68DX3
Chain of FRMPD2_1, Q68DX3 (Q68DX3 770-861): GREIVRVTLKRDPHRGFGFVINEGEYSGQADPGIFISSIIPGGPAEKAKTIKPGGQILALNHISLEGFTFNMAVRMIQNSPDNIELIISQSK

APBA2_2, Q99767 = target: T6, APBA2_2, Q99767
T6 sequence (Q99767 654-744, limits assumed, looked up): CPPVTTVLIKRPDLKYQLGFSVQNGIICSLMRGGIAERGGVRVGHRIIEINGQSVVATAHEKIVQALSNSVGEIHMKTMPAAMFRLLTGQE

SIPA1L2, Q9P2F8 = target: T7, SIPA1L2, Q9P2F8
T7 sequence (Q9P2F8 945-1036, limits assumed, looked up): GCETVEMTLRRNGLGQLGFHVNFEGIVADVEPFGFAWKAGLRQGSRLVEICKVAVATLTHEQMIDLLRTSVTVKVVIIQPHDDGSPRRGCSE

DLG4_3, P78352 = target: DLG4_3, P78352
Chain of DLG4_3, P78352 (P78352 306-403): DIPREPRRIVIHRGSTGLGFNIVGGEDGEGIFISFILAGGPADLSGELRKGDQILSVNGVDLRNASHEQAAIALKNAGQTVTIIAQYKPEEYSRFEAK

DLG4_1, P78352 = target: DLG4_1, P78352
Chain of DLG4_1, P78352 (P78352 62-152): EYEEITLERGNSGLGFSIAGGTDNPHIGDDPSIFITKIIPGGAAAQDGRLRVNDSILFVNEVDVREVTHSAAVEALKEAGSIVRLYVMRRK

LNX2_3, Q8N448 = target: T8, LNX2_3, Q8N448
T8 sequence (Q8N448 463-564, limits assumed, looked up): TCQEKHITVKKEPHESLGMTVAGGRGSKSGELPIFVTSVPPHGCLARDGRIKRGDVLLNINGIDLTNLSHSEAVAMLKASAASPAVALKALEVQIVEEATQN

NHERF2_2, Q15599 = target: NHERF2_2, Q15599
Chain of NHERF2_2, Q15599 (Q15599 142-238): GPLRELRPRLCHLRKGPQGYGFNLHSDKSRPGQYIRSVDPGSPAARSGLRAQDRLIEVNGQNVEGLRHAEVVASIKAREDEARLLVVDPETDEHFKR

PICK1, Q9NRD5 = target: PICK1, Q9NRD5
Chain of PICK1, Q9NRD5 (Q9NRD5 17-115): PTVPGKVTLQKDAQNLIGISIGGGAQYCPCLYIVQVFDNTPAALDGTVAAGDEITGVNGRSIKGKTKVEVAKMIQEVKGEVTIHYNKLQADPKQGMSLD

GRIP1_3, Q9Y3R0 = target: T9, GRIP1_3, Q9Y3R0
T9 sequence (Q9Y3R0 247-346, limits assumed, looked up): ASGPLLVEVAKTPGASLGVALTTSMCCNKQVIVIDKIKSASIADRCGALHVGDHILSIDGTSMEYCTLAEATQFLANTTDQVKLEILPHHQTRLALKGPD

HTRA1, Q92743 = target: HTRA1, Q92743
Chain of HTRA1, Q92743 (Q92743 360-477): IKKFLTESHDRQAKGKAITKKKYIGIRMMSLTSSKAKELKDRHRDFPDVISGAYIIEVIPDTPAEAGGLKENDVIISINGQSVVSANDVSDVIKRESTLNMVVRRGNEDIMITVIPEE

MAGI2_3, Q86UL8 = target: MAGI2_3, Q86UL8
Chain of MAGI2_3, Q86UL8 (Q86UL8 600-682): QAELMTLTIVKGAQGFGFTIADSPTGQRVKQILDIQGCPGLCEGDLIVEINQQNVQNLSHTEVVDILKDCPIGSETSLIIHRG

MPDZ_5, O75970 = target: T10, MPDZ_5, O75970
T10 sequence (O75970 695-796, limits assumed, looked up): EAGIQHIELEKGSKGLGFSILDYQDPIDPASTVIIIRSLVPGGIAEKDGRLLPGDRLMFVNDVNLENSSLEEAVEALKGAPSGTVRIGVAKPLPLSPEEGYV

IL16_1, Q14005 = target: IL16_1, Q14005
Chain of IL16_1, Q14005 (Q14005 210-306): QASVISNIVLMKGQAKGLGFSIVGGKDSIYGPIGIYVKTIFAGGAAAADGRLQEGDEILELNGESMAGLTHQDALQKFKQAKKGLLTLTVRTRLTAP

MPP6, Q9NZW5 = target: T11, MPP6, Q9NZW5
T11 sequence (Q9NZW5 125-219, limits assumed, looked up): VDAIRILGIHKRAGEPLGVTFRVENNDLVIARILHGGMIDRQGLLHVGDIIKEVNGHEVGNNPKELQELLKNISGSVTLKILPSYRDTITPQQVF

PDLIM1, O00151 = target: PDLIM1, O00151
Chain of PDLIM1, O00151 (O00151 1-87): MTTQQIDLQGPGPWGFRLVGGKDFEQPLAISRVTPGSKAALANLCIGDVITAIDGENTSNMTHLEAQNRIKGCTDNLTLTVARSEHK

PTPN3, P26045 = target: PTPN3, P26045
Chain of PTPN3, P26045 (P26045 505-587): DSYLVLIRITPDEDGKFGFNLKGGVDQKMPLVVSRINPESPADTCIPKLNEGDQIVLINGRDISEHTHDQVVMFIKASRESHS

Chain of LDB3, O75112 (O75112 1-94): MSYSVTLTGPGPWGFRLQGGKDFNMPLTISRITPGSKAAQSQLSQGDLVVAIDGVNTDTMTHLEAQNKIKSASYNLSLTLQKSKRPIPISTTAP
Chain of FRMPD2_2, Q68DX3 (Q68DX3 944-1038): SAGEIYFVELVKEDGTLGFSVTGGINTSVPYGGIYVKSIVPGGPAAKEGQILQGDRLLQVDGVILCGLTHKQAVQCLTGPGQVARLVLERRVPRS

Binder: ANGLMQTSKL [SSTR5, P35346]
- pKd (LDB3, O75112): below the threshold
- pKd (FRMPD2_2, Q68DX3): below the threshold
- pKd (GRIP2_5, Q9C0E4): below the threshold
- pKd (HTRA4, P83105): 3.7
- pKd (MAGI2_2, Q86UL8): below the threshold
- pKd (TIAM2, Q8IVF5): 3.65
- pKd (MAST1, Q9Y2H9): 4.63
- pKd (RAPGEF6, Q8TEU7): below the threshold
- pKd (SNTB1, Q13884): below the threshold
- pKd (DLG1_1, Q12959): below the threshold
- pKd (LRRC7, Q96NW7): below the threshold
- pKd (FRMPD2_1, Q68DX3): below the threshold
- pKd (APBA2_2, Q99767): below the threshold
- pKd (SIPA1L2, Q9P2F8): below the threshold
- pKd (DLG4_3, P78352): below the threshold
- pKd (DLG4_1, P78352): below the threshold
- pKd (LNX2_3, Q8N448): below the threshold
- pKd (NHERF2_2, Q15599): 4.64
- pKd (PICK1, Q9NRD5): 4.08
- pKd (GRIP1_3, Q9Y3R0): below the threshold
- pKd (HTRA1, Q92743): below the threshold
- pKd (MAGI2_3, Q86UL8): 3.48
- pKd (MPDZ_5, O75970): below the threshold
- pKd (IL16_1, Q14005): below the threshold
- pKd (MPP6, Q9NZW5): below the threshold
- pKd (PDLIM1, O00151): below the threshold
- pKd (PTPN3, P26045): 4.1

Binder: PAPGQHTTQI [STK16, O75716]
- pKd (LDB3, O75112): below the threshold
- pKd (FRMPD2_2, Q68DX3): 3.48
- pKd (GRIP2_5, Q9C0E4): below the threshold
- pKd (HTRA4, P83105): 3.8
- pKd (MAGI2_2, Q86UL8): below the threshold
- pKd (TIAM2, Q8IVF5): 3.97
- pKd (MAST1, Q9Y2H9): 4.37
- pKd (RAPGEF6, Q8TEU7): 3.49
- pKd (SNTB1, Q13884): 3.57
- pKd (DLG1_1, Q12959): 3.56
- pKd (LRRC7, Q96NW7): below the threshold
- pKd (FRMPD2_1, Q68DX3): below the threshold
- pKd (APBA2_2, Q99767): below the threshold
- pKd (SIPA1L2, Q9P2F8): below the threshold
- pKd (DLG4_3, P78352): below the threshold
- pKd (DLG4_1, P78352): below the threshold
- pKd (LNX2_3, Q8N448): below the threshold
- pKd (NHERF2_2, Q15599): 3.78
- pKd (PICK1, Q9NRD5): 4.07
- pKd (GRIP1_3, Q9Y3R0): below the threshold
- pKd (HTRA1, Q92743): below the threshold
- pKd (MAGI2_3, Q86UL8): below the threshold
- pKd (MPDZ_5, O75970): below the threshold
- pKd (IL16_1, Q14005): below the threshold
- pKd (MPP6, Q9NZW5): 3.57
- pKd (PDLIM1, O00151): below the threshold
- pKd (PTPN3, P26045): 4.21

Binder: QSPPNIYYKV [EFNB3, Q15768]
- pKd (LDB3, O75112): below the threshold
- pKd (FRMPD2_2, Q68DX3): below the threshold
- pKd (GRIP2_5, Q9C0E4): below the threshold
- pKd (HTRA4, P83105): below the threshold
- pKd (MAGI2_2, Q86UL8): below the threshold
- pKd (TIAM2, Q8IVF5): 4.01
- pKd (MAST1, Q9Y2H9): 4.07
- pKd (RAPGEF6, Q8TEU7): below the threshold
- pKd (SNTB1, Q13884): below the threshold
- pKd (DLG1_1, Q12959): below the threshold
- pKd (LRRC7, Q96NW7): below the threshold
- pKd (FRMPD2_1, Q68DX3): 3.79
- pKd (APBA2_2, Q99767): below the threshold
- pKd (SIPA1L2, Q9P2F8): below the threshold
- pKd (DLG4_3, P78352): below the threshold
- pKd (DLG4_1, P78352): below the threshold
- pKd (LNX2_3, Q8N448): below the threshold
- pKd (NHERF2_2, Q15599): 3.56
- pKd (PICK1, Q9NRD5): below the threshold
- pKd (GRIP1_3, Q9Y3R0): below the threshold
- pKd (HTRA1, Q92743): 4.49
- pKd (MAGI2_3, Q86UL8): below the threshold
- pKd (MPDZ_5, O75970): below the threshold
- pKd (IL16_1, Q14005): below the threshold
- pKd (MPP6, Q9NZW5): below the threshold
- pKd (PDLIM1, O00151): below the threshold
- pKd (PTPN3, P26045): 4.05

Binder: ETSLVKGIDI [DENND5A, Q6IQ26]
- pKd (LDB3, O75112): 3.51
- pKd (FRMPD2_2, Q68DX3): below the threshold
- pKd (GRIP2_5, Q9C0E4): below the threshold
- pKd (HTRA4, P83105): 4.13
- pKd (MAGI2_2, Q86UL8): 3.48
- pKd (TIAM2, Q8IVF5): below the threshold
- pKd (MAST1, Q9Y2H9): below the threshold
- pKd (RAPGEF6, Q8TEU7): below the threshold
- pKd (SNTB1, Q13884): below the threshold
- pKd (DLG1_1, Q12959): 3.67
- pKd (LRRC7, Q96NW7): below the threshold
- pKd (FRMPD2_1, Q68DX3): below the threshold
- pKd (APBA2_2, Q99767): below the threshold
- pKd (SIPA1L2, Q9P2F8): below the threshold
- pKd (DLG4_3, P78352): below the threshold
- pKd (DLG4_1, P78352): below the threshold
- pKd (LNX2_3, Q8N448): below the threshold
- pKd (NHERF2_2, Q15599): 3.48
- pKd (PICK1, Q9NRD5): below the threshold
- pKd (GRIP1_3, Q9Y3R0): below the threshold
- pKd (HTRA1, Q92743): 3.6
- pKd (MAGI2_3, Q86UL8): below the threshold
- pKd (MPDZ_5, O75970): below the threshold
- pKd (IL16_1, Q14005): below the threshold
- pKd (MPP6, Q9NZW5): below the threshold
- pKd (PDLIM1, O00151): below the threshold
- pKd (PTPN3, P26045): below the threshold

Binder: NASRTRITFV [MCM7, P33993]
- pKd (LDB3, O75112): below the threshold
- pKd (FRMPD2_2, Q68DX3): 5.11
- pKd (GRIP2_5, Q9C0E4): below the threshold
- pKd (HTRA4, P83105): 4.59
- pKd (MAGI2_2, Q86UL8): 5.31
- pKd (TIAM2, Q8IVF5): 4.06
- pKd (MAST1, Q9Y2H9): 4.39
- pKd (RAPGEF6, Q8TEU7): below the threshold
- pKd (SNTB1, Q13884): 5.13
- pKd (DLG1_1, Q12959): 4.83
- pKd (LRRC7, Q96NW7): below the threshold
- pKd (FRMPD2_1, Q68DX3): below the threshold
- pKd (APBA2_2, Q99767): below the threshold
- pKd (SIPA1L2, Q9P2F8): below the threshold
- pKd (DLG4_3, P78352): 4.33
- pKd (DLG4_1, P78352): 4.76
- pKd (LNX2_3, Q8N448): below the threshold
- pKd (NHERF2_2, Q15599): 3.63
- pKd (PICK1, Q9NRD5): 4.17
- pKd (GRIP1_3, Q9Y3R0): below the threshold
- pKd (HTRA1, Q92743): 4.99
- pKd (MAGI2_3, Q86UL8): 4.99
- pKd (MPDZ_5, O75970): 4.37
- pKd (IL16_1, Q14005): below the threshold
- pKd (MPP6, Q9NZW5): below the threshold
- pKd (PDLIM1, O00151): below the threshold
- pKd (PTPN3, P26045): 4.71
